The results in this text go back to patent US20060204957A1 (published 2006).

For one assay, the target named is T1, MTA1s-stop (human, UniProt Q13330 1-397).
T1 sequence: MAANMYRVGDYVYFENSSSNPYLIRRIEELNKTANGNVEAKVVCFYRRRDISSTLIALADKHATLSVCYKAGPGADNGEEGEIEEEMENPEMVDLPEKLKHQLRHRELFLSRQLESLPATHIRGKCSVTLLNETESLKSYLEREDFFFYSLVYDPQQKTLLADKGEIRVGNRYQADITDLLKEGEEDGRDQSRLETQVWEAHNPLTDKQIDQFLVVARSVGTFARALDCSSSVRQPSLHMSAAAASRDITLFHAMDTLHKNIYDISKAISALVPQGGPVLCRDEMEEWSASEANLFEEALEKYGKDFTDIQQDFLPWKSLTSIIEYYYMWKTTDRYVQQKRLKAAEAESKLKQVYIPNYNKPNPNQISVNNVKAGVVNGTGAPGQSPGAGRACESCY
Description: GST pull-down (FIG. 4C).

For a further assay, the target named is T2, MTA1s-del (human, UniProt Q13330 1-397).
T2 sequence: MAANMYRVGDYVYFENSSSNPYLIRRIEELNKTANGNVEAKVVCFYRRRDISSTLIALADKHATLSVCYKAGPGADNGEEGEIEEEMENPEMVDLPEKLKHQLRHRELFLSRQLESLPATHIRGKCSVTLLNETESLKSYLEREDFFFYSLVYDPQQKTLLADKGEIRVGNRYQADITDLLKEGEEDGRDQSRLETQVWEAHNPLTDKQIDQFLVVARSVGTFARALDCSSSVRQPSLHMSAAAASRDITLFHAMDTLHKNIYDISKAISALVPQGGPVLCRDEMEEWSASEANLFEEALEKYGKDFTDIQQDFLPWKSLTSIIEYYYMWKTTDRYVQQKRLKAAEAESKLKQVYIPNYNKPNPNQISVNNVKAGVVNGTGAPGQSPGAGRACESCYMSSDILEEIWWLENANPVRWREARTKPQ
Description: GST pull-down (FIG. 4C).

B1: GST-AF2 domain of the ER (receptor, UniProt P03372 282-595, looked up)
chain: SAGDMRAANLWPSPLMIKRSKKNSLALSLTADQMVSALLDAEPPILYSEYDPTRPFSEASMMGLLTNLADRELVHMINWAKRVPGFVDLTLHDQVHLLECAWLEILMIGLVWRSMEHPGKLLFAPNLLLDRNQGKCVEGMVEIFDMLLATSSRFRMMNLQGEEFVCLKSIILLNSGVYTFLSSTLKSLEEKDHIHRVLDKITDTLIHLMAKAGLTLQQQHQRLAQLLLILSHIRHMSNKGMEHLYSMKCKNVVPLYDLLLEMLDAHRLHAPTSRGGASVEETDQSHLATAGSTSSHSLQKYYITGEAEGFPATV
notes: domain: AF2 domain; Immobilized on glutathione-sepharose beads; also called AF2 domain of ERα; not shown: glutathione S-transferase
Consider B1, for which the binding result in the assay with MTA1s-stop and with MTA1s-del was “no binding” each time.
